According to paper PMC8216282, “Structural basis for the dynamics of human methionyl-tRNA synthetase in multi-tRNA synthetase complexes” (Nucleic Acids Research, 2021):

T1: MRS full-length (in MRS-AIMP3 complex);AIMP3 (in MRS-AIMP3 complex) (human;human?, UniProt P56192;O43324 1-900;1-174, |)
T1 sequence 1: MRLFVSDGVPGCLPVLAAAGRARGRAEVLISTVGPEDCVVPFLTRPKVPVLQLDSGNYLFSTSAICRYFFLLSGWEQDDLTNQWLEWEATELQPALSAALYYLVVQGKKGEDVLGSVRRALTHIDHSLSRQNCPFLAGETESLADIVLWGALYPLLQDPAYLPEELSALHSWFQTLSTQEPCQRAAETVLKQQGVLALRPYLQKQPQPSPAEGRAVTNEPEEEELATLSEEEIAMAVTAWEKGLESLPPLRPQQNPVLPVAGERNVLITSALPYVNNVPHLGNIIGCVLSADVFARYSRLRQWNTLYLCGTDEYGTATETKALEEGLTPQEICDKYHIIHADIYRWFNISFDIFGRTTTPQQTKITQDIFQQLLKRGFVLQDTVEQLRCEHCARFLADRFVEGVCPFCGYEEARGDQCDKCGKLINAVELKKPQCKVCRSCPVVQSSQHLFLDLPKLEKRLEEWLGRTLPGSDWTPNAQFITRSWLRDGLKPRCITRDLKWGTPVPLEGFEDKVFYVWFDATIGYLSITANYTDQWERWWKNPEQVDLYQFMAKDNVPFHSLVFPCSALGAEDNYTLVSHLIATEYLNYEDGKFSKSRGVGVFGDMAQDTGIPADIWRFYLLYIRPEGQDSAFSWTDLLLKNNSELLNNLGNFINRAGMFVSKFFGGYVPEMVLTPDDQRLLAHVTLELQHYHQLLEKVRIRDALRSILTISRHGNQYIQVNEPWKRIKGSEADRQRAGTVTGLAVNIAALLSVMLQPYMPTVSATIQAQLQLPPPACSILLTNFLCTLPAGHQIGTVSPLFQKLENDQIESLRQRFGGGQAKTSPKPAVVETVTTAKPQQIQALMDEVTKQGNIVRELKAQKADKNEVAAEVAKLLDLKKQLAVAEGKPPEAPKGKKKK
T1 sequence 2: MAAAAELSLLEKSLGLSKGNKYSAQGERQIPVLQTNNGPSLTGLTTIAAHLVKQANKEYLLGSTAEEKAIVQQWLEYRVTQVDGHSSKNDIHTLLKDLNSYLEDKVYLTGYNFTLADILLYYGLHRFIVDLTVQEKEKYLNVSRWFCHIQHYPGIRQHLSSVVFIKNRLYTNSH

T2: MRS221-900 (methionyl-tRNA synthetase without N-terminal GST domain) (human, UniProt P56192 221-900)
T2 sequence: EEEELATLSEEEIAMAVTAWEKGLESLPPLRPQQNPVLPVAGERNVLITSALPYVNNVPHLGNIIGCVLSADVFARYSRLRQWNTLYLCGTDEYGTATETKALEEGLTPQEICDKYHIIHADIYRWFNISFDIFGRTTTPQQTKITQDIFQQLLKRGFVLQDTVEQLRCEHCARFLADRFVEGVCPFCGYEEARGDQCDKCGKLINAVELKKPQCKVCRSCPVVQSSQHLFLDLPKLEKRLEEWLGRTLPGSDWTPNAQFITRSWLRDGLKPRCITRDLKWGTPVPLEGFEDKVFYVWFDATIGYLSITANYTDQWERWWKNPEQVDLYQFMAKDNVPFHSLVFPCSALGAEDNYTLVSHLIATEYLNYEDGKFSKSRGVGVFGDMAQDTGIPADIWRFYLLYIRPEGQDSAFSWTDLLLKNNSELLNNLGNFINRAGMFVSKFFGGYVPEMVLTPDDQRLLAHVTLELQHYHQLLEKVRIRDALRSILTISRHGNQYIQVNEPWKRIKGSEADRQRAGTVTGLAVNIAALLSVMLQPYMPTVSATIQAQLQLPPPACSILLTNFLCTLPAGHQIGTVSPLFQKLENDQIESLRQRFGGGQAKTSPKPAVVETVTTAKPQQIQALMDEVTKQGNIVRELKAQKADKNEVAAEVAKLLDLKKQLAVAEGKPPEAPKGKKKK

T3: AIMP3 with the nanoluciferase large subunit at its N-terminus (LgBit-AIMP3) (human, UniProt O43324 1-174)
T3 construct: AIMP3, human; source: CHO-K1 cells, transfected, in live cells; not shown: LgBit (NanoLuc large subunit), N-terminal, kept
T3 sequence (looked up): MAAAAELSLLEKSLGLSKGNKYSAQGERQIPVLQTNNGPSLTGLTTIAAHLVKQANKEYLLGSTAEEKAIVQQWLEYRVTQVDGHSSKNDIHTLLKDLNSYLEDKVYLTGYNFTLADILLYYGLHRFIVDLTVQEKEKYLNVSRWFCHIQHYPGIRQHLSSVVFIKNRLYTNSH


Columns and labels:
[1] = biological target: T1, MRS full-length (in MRS-AIMP3 …); experiment: MST; protein labeled with Red-tris-NTA, unlabeled RNA; MST: PBS, 1-100 uM protein, 80 nM 6-FAM-RNA, temperature not stated; pull-down: 50 mM Tris-HCl pH 7.5, 150 mM NaCl, Ni-NTA (yeast total tRNA pool not listed); conditions: protein: recombinant;recombinant; copies: 1;1; label: none (Results); Methods text says 6-FAM-RNA for this assay too; tRNA fold
[2] = biological target: T2, MRS221-900 (methionyl-tRNA synthetase …); experiment: as above; conditions: protein: recombinant; tags: hexa-His; label: none (Results); Methods text says 6-FAM-RNA for this assay too; tRNA fold
[3] = biological target: T3, AIMP3 with the nanoluciferase large …; experiment: split reporter (BiFC, NanoBiT); NanoBiT; LgBit on the N- or C-terminus of AIMP3, SmBit on the N- or C-terminus of MRS or on AIMP3; co-expressed in CHO-K1 cells; luminescence measured with cell-permeable substrate; conditions: partners not purified

fold increase of luciferase activity over background [3] [fold]	Binder	Kd [1] [µM]	Kd [2] [µM]
	unlabeled synthetic elongator tRNAMet (structured_RNA, none stated (synthetic RNA)) RNA: GCCUCGUUAGCGCAGUAGGUAGCGCGUCAGUCUCAUAAUCUGAAGGUCGUGAGUUCGAUCCUCACACGGGGCA	60.2	21.6
> 120	MRS with the nanoluciferase small subunit at its N-terminus (SmBit-MRS) (enzyme, human, UniProt P56192 1-900, looked up, methionyl-tRNA synthetase, cytosolic, human; source: CHO-K1 cells, transfected, in live cells; not shown: SmBit (NanoLuc small subunit), N-terminal, kept) MRLFVSDGVPGCLPVLAAAGRARGRAEVLISTVGPEDCVVPFLTRPKVPVLQLDSGNYLFSTSAICRYFFLLSGWEQDDLTNQWLEWEATELQPALSAALYYLVVQGKKGEDVLGSVRRALTHIDHSLSRQNCPFLAGETESLADIVLWGALYPLLQDPAYLPEELSALHSWFQTLSTQEPCQRAAETVLKQQGVLALRPYLQKQPQPSPAEGRAVTNEPEEEELATLSEEEIAMAVTAWEKGLESLPPLRPQQNPVLPVAGERNVLITSALPYVNNVPHLGNIIGCVLSADVFARYSRLRQWNTLYLCGTDEYGTATETKALEEGLTPQEICDKYHIIHADIYRWFNISFDIFGRTTTPQQTKITQDIFQQLLKRGFVLQDTVEQLRCEHCARFLADRFVEGVCPFCGYEEARGDQCDKCGKLINAVELKKPQCKVCRSCPVVQSSQHLFLDLPKLEKRLEEWLGRTLPGSDWTPNAQFITRSWLRDGLKPRCITRDLKWGTPVPLEGFEDKVFYVWFDATIGYLSITANYTDQWERWWKNPEQVDLYQFMAKDNVPFHSLVFPCSALGAEDNYTLVSHLIATEYLNYEDGKFSKSRGVGVFGDMAQDTGIPADIWRFYLLYIRPEGQDSAFSWTDLLLKNNSELLNNLGNFINRAGMFVSKFFGGYVPEMVLTPDDQRLLAHVTLELQHYHQLLEKVRIRDALRSILTISRHGNQYIQVNEPWKRIKGSEADRQRAGTVTGLAVNIAALLSVMLQPYMPTVSATIQAQLQLPPPACSILLTNFLCTLPAGHQIGTVSPLFQKLENDQIESLRQRFGGGQAKTSPKPAVVETVTTAKPQQIQALMDEVTKQGNIVRELKAQKADKNEVAAEVAKLLDLKKQLAVAEGKPPEAPKGKKKK		
